# T1: CD47 on the surface of A20 mouse lymphoma cells (mouse (A20 mouse lymphoma cells), UniProt Q61735 19-303)
# T1 construct: whole, on cells; also called CD47 receptor; CD47 immune checkpoint
# T1 sequence (looked up): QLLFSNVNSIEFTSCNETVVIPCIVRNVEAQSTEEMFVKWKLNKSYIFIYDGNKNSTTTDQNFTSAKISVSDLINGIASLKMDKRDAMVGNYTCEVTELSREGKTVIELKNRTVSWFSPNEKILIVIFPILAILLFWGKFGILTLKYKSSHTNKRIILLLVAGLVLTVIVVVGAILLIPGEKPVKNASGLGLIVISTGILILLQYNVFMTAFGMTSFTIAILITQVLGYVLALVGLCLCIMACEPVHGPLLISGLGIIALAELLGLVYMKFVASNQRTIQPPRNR
# B1: purified anti-PD-L1 nanobody with hexahistidine and HA tags fused in C-terminal (VHH)
# VHH: QVQLVETGGGLVQPGGSLRLSCTASGFTFSMHAMTWYRQAPGKQRELVAVITSHGDRANYTDSVRGRFTISRDNTKNMVYLQMNSLKPEDTAVYYCNVPRYDSWGQGTQVTVSS
# notes: Expressed from the pTrcHis vector in E. coli BL21 (DE3), purified on Ni-NTA; also called nbPDL1 (pTAT034); not shown: hexahistidine and HA tags fused in C-terminal
# B2: synthetic bacteriophage displaying an anti-PD-L1 nanobody on pIII (MG1655+pTAT004+pTAT020) (other)
# chain: QVQLVETGGGLVQPGGSLRLSCTASGFTFSMHAMTWYRQAPGKQRELVAVITSHGDRANYTDSVRGRFTISRDNTKNMVYLQMNSLKPEDTAVYYCNVPRYDSWGQGTQVTVSSGGLPETGG
# notes: Whole phage particle; also called anti-PD-L1 synthetic bacteriophage; not shown: HA-6His dual tag linker; C-terminal fragment of coat protein pIII (gpIII-C) of bacteriophage M13
# B3: synthetic bacteriophage displaying the anti-PD-L1 nanobody inserted between the binding domain and the bacteriophage anchor domain of pIII (MG1655+pTAT033) (other)
# chain: B2 chain
# notes: Single-vector system derived from M13mp18-Kan; whole phage particle, remained infectious; also called anti-PD-L1 nanobody inserted in pIII; not shown: N-terminal part of pIII (D1/D2 domains) of bacteriophage M13; C-terminal part of pIII (gpIII-C, transmembrane region / anchor domain) of bacteriophage M13
# B4: purified anti-PD-L1 nanobody: purified anti-PD-L1 nanobody with hexahistidine and HA tags, expressed in BL21 (DE3) (protein)
# VHH: B2 chain
# modifications: left off: small tags and cut ends
# B5: synthetic bacteriophage displaying the anti-PD-L1 nanobody at the N-terminal end of pIII (MG1655+pTAT032) (other)
# chain: B2 chain
# notes: Single-vector system derived from M13mp18-Kan; also called pTAT32; anti-PD-L1 nanobody on pIII; not shown: C-terminal fragment of coat protein pIII (gpIII-C) of bacteriophage M13
# B6: synthetic bacteriophage displaying an anti-CD47 nanobody on pIII (MG1655+pTAT004+pTAT003) (other, not shown: small tags and cut ends; large carriers)
# chain: QVQLVESGGGLVEPGGSLRLSCAASGIIFKINDMGWYRQAPGKRREWVAASTGGDEAIYRDSVKDRFTISRDAKNSVFLQMNSLKPEDTAVYYCTAVISTDRDGTEWRRYWGQGTQVTVSSGGLPETGG
# notes: also called pTAT003 derived bacteriophages; nbCD47-pIII bacteriophages
# B7: synthetic bacteriophage displaying an anti-CTLA-4 anticalin on pIII (MG1655+pTAT004+pTAT030) (other)
# chain: QDSTSDLIPAPPLSKVPLQQNFQDNQFHGKWYVVGLAGNRILRDDQHPMNMYATIYELKEDKSYNVTSVISSHKKCEYTIATFVPGSQPGEFTLGNIKSYGDKTSYLVRVVSTDYNQYAMVFFKLAEDNAEFFAITIYGRTKELASELKENFIRFSKSLGLPENHIVFPVPIDQCIDG
# notes: Whole phage particle; not shown: HA-6His dual tag linker; C-terminal fragment of coat protein pIII (gpIII-C) of bacteriophage M13
# Tests used:
# [1] = target: T2, PD-L1 on the surface of A20 cells (mouse (A20 mouse lymphoma cells), UniProt Q9EP73 19-290); assay: ELISA on fixed A20 cells, detection with anti-HA-HRP
# T2 construct: whole, on cells; also called PD-L1 receptor; CD274
# T2 sequence (Q9EP73 19-290): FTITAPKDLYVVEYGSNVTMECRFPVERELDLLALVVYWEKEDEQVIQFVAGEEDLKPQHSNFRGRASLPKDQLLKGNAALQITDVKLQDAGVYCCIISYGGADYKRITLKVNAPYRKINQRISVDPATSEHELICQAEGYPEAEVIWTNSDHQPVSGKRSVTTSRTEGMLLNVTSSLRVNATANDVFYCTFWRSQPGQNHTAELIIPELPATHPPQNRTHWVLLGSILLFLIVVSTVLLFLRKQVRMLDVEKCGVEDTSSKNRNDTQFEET
# [2] = target: T2, PD-L1 on the surface of A20 cells; assay: flow cytometry on A20 cells, competition with anti-PD-L1-PE (10F.9G2)
# [3] = target: T3, PD-L1 on A20 cells (Mus musculus, UniProt Q9EP73); assay: Binding to PD-L1 on fixed A20 cells by ELISA; conditions: nanobody 1 nM to 10 μM, detection anti-HA-HRP
# T3 construct: host or cells: A20 mouse B lymphoma cells (live for flow cytometry, formalin-fixed for ELISA)
# T3 sequence (Q9EP73 19-290): as above
# Method: Assessment of anti-PD-L1 displaying bacteriophages binding activity on A20 cells by EUSA. A 96 wells plate was prepared by adding in each well 100 μL of PBS comprising 1×10^5 A20 cells. The plate was then incubated 30 min to allow sedimentation of the cells. The plate was then tilted and the PBS was carefully removed. To fix the cells to the plate, 100 μL of 10% formalin was then added, and the plate was incubated for 10 min. The fixed cells were then washed gently with 100 μL of PBS and then blocked by adding 200 μL of PBS (1% BSA, 3% milk), followed a 30 min incubation periode. The blocking buffer was removed and then 100 μL of bacteriophage PEG preparation was added to the wells. The plate was incubated 1 h and then washed three times with 200 μL of PBS. To detect the bacteriophages, 100 μL of anti-HA-HRP (Cell Signaling) 1/500 diluted in PBS (3% milk, 1% BSA) was added and the plate was incubated for 1 h. […] Then, 100 μL from each well was transferred to a new plate and optical density was measured at 450 nm.
# Assessment of anti-PD-L1 nanobody binding activity on A20 cells by EISA. […] Then, 100 μL from each well was transferred to a new plate and optical density was measured at 450 nm. […] Tumor sizes were then monitored twice a week using a precise caliper until tumors exceed 1500 mm^3 or until day 24 after the first injection. […]
# [4] = target: T1, CD47 on the surface of A20 mouse …; assay: pull-down assay on A20 cells
# [5] = target: T4, mice CTLA-4 recombinant protein (R&D systems) (mice, UniProt P09793 36-161); assay: ELISA on coated mouse CTLA-4, detection with anti-pVIII-HRP
# T4 construct: Coated on ELISA plates at 10 µg/mL; also called recombinant CTLA-4 protein; CTLA-4 immune checkpoint
molecule,measurement,setting,value
B1,binding result,[1],binds
B2,binding result,[2],binds
B3,binding result,[2],binds
B4,purified nanobody binding activity on A20 cells (ELISA),[3],confirmed its binding activity on A20 cells
B5,binding result,[2],binds
B6,binding result,[4],binds
B7,binding result,[5],binds
